{"source": "patent US20230406885A1", "about": "“CYCLIC PEPTIDES FOR TRAPPING INTERLEUKIN-1 BETA” (MERCK SHARP & DOHME LLC, priority 2022, published 2023)", "note": "*1 amine or outer side, *2 acyl side, *3 side chain or, on linkers, in order; H or OH if unused. [ ]: non-standard residue; d: D form. TyrEtNAc = L-tyrosine O-ethyl acetamide, (S)-3-(4-(2-acetamidoethoxy)phenyl)-2-aminopropanoic acid, CC(=O)NCCOc1ccc(C[C@H](N[*:1])C(=O)[*:2])cc1; 3AzaPhe4AcPip = (S)-3-(6-(4-acetylpiperazin-1-yl)pyridin-3-yl)-2-aminopropanoic acid, CC(=O)N1CCN(c2ccc(C[C@H](N[*:1])C(=O)[*:2])cn2)CC1; Pro(trans-4-NH2) = O=C([C@@H]1C[C@@H](N[*:3])CN1[*:1])[*:2]; Trp(βS-Me,4-F) = C[C@@H](c1c[nH]c2cccc(F)c12)[C@H](N)C(=O)O; Bip(4'-COOH) = N[C@@H](Cc1ccc(-c2ccc(C(=O)O)cc2)cc1)C(=O)O; hQ = L-homoglutamine, NC(=O)CCC[C@H](N[*:1])C(=O)[*:2]; 1Nal(3S-Me) = C[C@@H](c1cccc2ccccc12)[C@H](N)C(=O)O; Phe(4-COOH) = N[C@@H](Cc1ccc(C(=O)O)cc1)C(=O)O; h3Pal(5-CN) = N#Cc1cncc(CC[C@H](N)C(=O)O)c1; hTyr = N[C@@H](CCc1ccc(O)cc1)C(=O)O; hCha = N[C@@H](CCC1CCCCC1)C(=O)O; tBuAla = CC(C)(C)C[C@H](N)C(=O)O; dNle = CCCC[C@@H](N)C(=O)O; dNva = CCC[C@@H](N)C(=O)O; Orn = NCCC[C@H](N)C(=O)O; dNMeA = CN[C@H](C)C(=O)O; Dab = NCC[C@H](N)C(=O)O; Dap = NC[C@H](N)C(=O)O"}
{"target": "Recombinant human IL-1β (BioLegend 579404) (human, UniProt P01584 117-269)", "assay": "cell-based or functional assay", "units": {"MRC5 IC50": "pM"}}
{"binder": "cyclo([TyrEtNAc]W[Phe(4-COOH)]G[Pro(trans-4-NH2)][Trp(βS-Me,4-F)]D[dNMeA]G[Bip(4'-COOH)]WS[dA][hTyr]) (SMILES CC(=O)NCCOc1ccc(C[C@@H]2NC(=O)[C@H](CCc3ccc(O)cc3)NC(=O)[C@@H](C)NC(=O)[C@H](CO)NC(=O)[C@H](Cc3c[nH]c4ccccc34)NC(=O)[C@H](Cc3ccc(-c4ccc(C(=O)O)cc4)cc3)NC(=O)CNC(=O)[C@@H](C)N(C)C(=O)[C@H](CC(=O)O)NC(=O)[C@H]([C@@H](C)c3c[nH]c4cccc(F)c34)NC(=O)[C@@H]3C[C@@H](N)CN3C(=O)CNC(=O)[C@H](Cc3ccc(C(=O)O)cc3)NC(=O)[C@H](Cc3c[nH]c4ccccc34)NC2=O)cc1)", "note": "[SEQ ID NO: 172 (Example No. 172)]", "MRC5 IC50": 246}
{"binder": "cyclo([TyrEtNAc]W[Phe(4-COOH)]G[Pro(trans-4-NH2)][Trp(βS-Me,4-F)]D[dNMeA]G[Bip(4'-COOH)]WS[dA][TyrEtNAc]) (SMILES CC(=O)NCCOc1ccc(C[C@@H]2NC(=O)[C@H](Cc3ccc(OCCNC(C)=O)cc3)NC(=O)[C@@H](C)NC(=O)[C@H](CO)NC(=O)[C@H](Cc3c[nH]c4ccccc34)NC(=O)[C@H](Cc3ccc(-c4ccc(C(=O)O)cc4)cc3)NC(=O)CNC(=O)[C@@H](C)N(C)C(=O)[C@H](CC(=O)O)NC(=O)[C@H]([C@@H](C)c3c[nH]c4cccc(F)c34)NC(=O)[C@@H]3C[C@@H](N)CN3C(=O)CNC(=O)[C@H](Cc3ccc(C(=O)O)cc3)NC(=O)[C@H](Cc3c[nH]c4ccccc34)NC2=O)cc1)", "note": "[SEQ ID NO: 173 (Example No. 173)]", "MRC5 IC50": 959}
{"binder": "cyclo([3AzaPhe4AcPip]W[Phe(4-COOH)]G[Pro(trans-4-NH2)][1Nal(3S-Me)]D[dNMeA]G[Bip(4'-COOH)][Dab]L[dA][hCha]) (SMILES CC(=O)N1CCN(c2ccc(C[C@@H]3NC(=O)[C@H](CCC4CCCCC4)NC(=O)[C@@H](C)NC(=O)[C@H](CC(C)C)NC(=O)[C@H](CCN)NC(=O)[C@H](Cc4ccc(-c5ccc(C(=O)O)cc5)cc4)NC(=O)CNC(=O)[C@@H](C)N(C)C(=O)[C@H](CC(=O)O)NC(=O)[C@H]([C@@H](C)c4cccc5ccccc45)NC(=O)[C@@H]4C[C@@H](N)CN4C(=O)CNC(=O)[C@H](Cc4ccc(C(=O)O)cc4)NC(=O)[C@H](Cc4c[nH]c5ccccc45)NC3=O)cn2)CC1)", "note": "[SEQ ID NO: 174 (Example No. 174)]", "MRC5 IC50": 15}
{"binder": "cyclo([3AzaPhe4AcPip]W[Phe(4-COOH)]G[Pro(trans-4-NH2)][1Nal(3S-Me)]D[dNMeA]G[Bip(4'-COOH)][Dap]L[dA][hCha]) (SMILES CC(=O)N1CCN(c2ccc(C[C@@H]3NC(=O)[C@H](CCC4CCCCC4)NC(=O)[C@@H](C)NC(=O)[C@H](CC(C)C)NC(=O)[C@H](CN)NC(=O)[C@H](Cc4ccc(-c5ccc(C(=O)O)cc5)cc4)NC(=O)CNC(=O)[C@@H](C)N(C)C(=O)[C@H](CC(=O)O)NC(=O)[C@H]([C@@H](C)c4cccc5ccccc45)NC(=O)[C@@H]4C[C@@H](N)CN4C(=O)CNC(=O)[C@H](Cc4ccc(C(=O)O)cc4)NC(=O)[C@H](Cc4c[nH]c5ccccc45)NC3=O)cn2)CC1)", "note": "[SEQ ID NO: 175 (Example No. 175)]", "MRC5 IC50": 16}
{"binder": "cyclo([3AzaPhe4AcPip]W[Phe(4-COOH)]G[Pro(trans-4-NH2)][1Nal(3S-Me)]D[dNMeA]G[Bip(4'-COOH)][hQ]L[dA][h3Pal(5-CN)]) (SMILES CC(=O)N1CCN(c2ccc(C[C@@H]3NC(=O)[C@H](CCc4cncc(C#N)c4)NC(=O)[C@@H](C)NC(=O)[C@H](CC(C)C)NC(=O)[C@H](CCCC(N)=O)NC(=O)[C@H](Cc4ccc(-c5ccc(C(=O)O)cc5)cc4)NC(=O)CNC(=O)[C@@H](C)N(C)C(=O)[C@H](CC(=O)O)NC(=O)[C@H]([C@@H](C)c4cccc5ccccc45)NC(=O)[C@@H]4C[C@@H](N)CN4C(=O)CNC(=O)[C@H](Cc4ccc(C(=O)O)cc4)NC(=O)[C@H](Cc4c[nH]c5ccccc45)NC3=O)cn2)CC1)", "note": "[SEQ ID NO: 176 (Example No. 176)]", "MRC5 IC50": 17}
{"binder": "cyclo([3AzaPhe4AcPip]W[Phe(4-COOH)]G[Pro(trans-4-NH2)][1Nal(3S-Me)]D[dNMeA]G[Bip(4'-COOH)]KL[dA][hCha]) (SMILES CC(=O)N1CCN(c2ccc(C[C@@H]3NC(=O)[C@H](CCC4CCCCC4)NC(=O)[C@@H](C)NC(=O)[C@H](CC(C)C)NC(=O)[C@H](CCCCN)NC(=O)[C@H](Cc4ccc(-c5ccc(C(=O)O)cc5)cc4)NC(=O)CNC(=O)[C@@H](C)N(C)C(=O)[C@H](CC(=O)O)NC(=O)[C@H]([C@@H](C)c4cccc5ccccc45)NC(=O)[C@@H]4C[C@@H](N)CN4C(=O)CNC(=O)[C@H](Cc4ccc(C(=O)O)cc4)NC(=O)[C@H](Cc4c[nH]c5ccccc45)NC3=O)cn2)CC1)", "note": "[SEQ ID NO: 177 (Example No. 177)]", "MRC5 IC50": 13}
{"binder": "cyclo([3AzaPhe4AcPip]W[Phe(4-COOH)]G[Pro(trans-4-NH2)][1Nal(3S-Me)]D[dNMeA]G[Bip(4'-COOH)]KL[dL][h3Pal(5-CN)]) (SMILES CC(=O)N1CCN(c2ccc(C[C@@H]3NC(=O)[C@H](CCc4cncc(C#N)c4)NC(=O)[C@@H](CC(C)C)NC(=O)[C@H](CC(C)C)NC(=O)[C@H](CCCCN)NC(=O)[C@H](Cc4ccc(-c5ccc(C(=O)O)cc5)cc4)NC(=O)CNC(=O)[C@@H](C)N(C)C(=O)[C@H](CC(=O)O)NC(=O)[C@H]([C@@H](C)c4cccc5ccccc45)NC(=O)[C@@H]4C[C@@H](N)CN4C(=O)CNC(=O)[C@H](Cc4ccc(C(=O)O)cc4)NC(=O)[C@H](Cc4c[nH]c5ccccc45)NC3=O)cn2)CC1)", "note": "[SEQ ID NO: 178 (Example No. 178)]", "MRC5 IC50": 19}
{"binder": "cyclo([3AzaPhe4AcPip]W[Phe(4-COOH)]G[Pro(trans-4-NH2)][1Nal(3S-Me)]D[dNMeA]G[Bip(4'-COOH)]KL[dNle][h3Pal(5-CN)]) (SMILES CCCC[C@H]1NC(=O)[C@H](CC(C)C)NC(=O)[C@H](CCCCN)NC(=O)[C@H](Cc2ccc(-c3ccc(C(=O)O)cc3)cc2)NC(=O)CNC(=O)[C@@H](C)N(C)C(=O)[C@H](CC(=O)O)NC(=O)[C@H]([C@@H](C)c2cccc3ccccc23)NC(=O)[C@@H]2C[C@@H](N)CN2C(=O)CNC(=O)[C@H](Cc2ccc(C(=O)O)cc2)NC(=O)[C@H](Cc2c[nH]c3ccccc23)NC(=O)[C@H](Cc2ccc(N3CCN(C(C)=O)CC3)nc2)NC(=O)[C@H](CCc2cncc(C#N)c2)NC1=O)", "note": "[SEQ ID NO: 179 (Example No. 179)]", "MRC5 IC50": 17}
{"binder": "cyclo([3AzaPhe4AcPip]W[Phe(4-COOH)]G[Pro(trans-4-NH2)][1Nal(3S-Me)]D[dNMeA]G[Bip(4'-COOH)]KL[dNva][h3Pal(5-CN)]) (SMILES CCC[C@H]1NC(=O)[C@H](CC(C)C)NC(=O)[C@H](CCCCN)NC(=O)[C@H](Cc2ccc(-c3ccc(C(=O)O)cc3)cc2)NC(=O)CNC(=O)[C@@H](C)N(C)C(=O)[C@H](CC(=O)O)NC(=O)[C@H]([C@@H](C)c2cccc3ccccc23)NC(=O)[C@@H]2C[C@@H](N)CN2C(=O)CNC(=O)[C@H](Cc2ccc(C(=O)O)cc2)NC(=O)[C@H](Cc2c[nH]c3ccccc23)NC(=O)[C@H](Cc2ccc(N3CCN(C(C)=O)CC3)nc2)NC(=O)[C@H](CCc2cncc(C#N)c2)NC1=O)", "note": "[SEQ ID NO: 180 (Example No. 180)]", "MRC5 IC50": 21}
{"binder": "cyclo([3AzaPhe4AcPip]W[Phe(4-COOH)]G[Pro(trans-4-NH2)][1Nal(3S-Me)]D[dNMeA]G[Bip(4'-COOH)]K[tBuAla][dA][h3Pal(5-CN)]) (SMILES CC(=O)N1CCN(c2ccc(C[C@@H]3NC(=O)[C@H](CCc4cncc(C#N)c4)NC(=O)[C@@H](C)NC(=O)[C@H](CC(C)(C)C)NC(=O)[C@H](CCCCN)NC(=O)[C@H](Cc4ccc(-c5ccc(C(=O)O)cc5)cc4)NC(=O)CNC(=O)[C@@H](C)N(C)C(=O)[C@H](CC(=O)O)NC(=O)[C@H]([C@@H](C)c4cccc5ccccc45)NC(=O)[C@@H]4C[C@@H](N)CN4C(=O)CNC(=O)[C@H](Cc4ccc(C(=O)O)cc4)NC(=O)[C@H](Cc4c[nH]c5ccccc45)NC3=O)cn2)CC1)", "note": "[SEQ ID NO: 181 (Example No. 181)]", "MRC5 IC50": 15}
{"binder": "cyclo([3AzaPhe4AcPip]W[Phe(4-COOH)]G[Pro(trans-4-NH2)][1Nal(3S-Me)]D[dNMeA]G[Bip(4'-COOH)][Orn]L[dA][hCha]) (SMILES CC(=O)N1CCN(c2ccc(C[C@@H]3NC(=O)[C@H](CCC4CCCCC4)NC(=O)[C@@H](C)NC(=O)[C@H](CC(C)C)NC(=O)[C@H](CCCN)NC(=O)[C@H](Cc4ccc(-c5ccc(C(=O)O)cc5)cc4)NC(=O)CNC(=O)[C@@H](C)N(C)C(=O)[C@H](CC(=O)O)NC(=O)[C@H]([C@@H](C)c4cccc5ccccc45)NC(=O)[C@@H]4C[C@@H](N)CN4C(=O)CNC(=O)[C@H](Cc4ccc(C(=O)O)cc4)NC(=O)[C@H](Cc4c[nH]c5ccccc45)NC3=O)cn2)CC1)", "note": "[SEQ ID NO: 182 (Example No. 182)]", "MRC5 IC50": 13}
{"binder": "cyclo([3AzaPhe4AcPip]W[Phe(4-COOH)]G[Pro(trans-4-NH2)][1Nal(3S-Me)]D[dNMeA]G[Bip(4'-COOH)]QL[dA][h3Pal(5-CN)]) (SMILES CC(=O)N1CCN(c2ccc(C[C@@H]3NC(=O)[C@H](CCc4cncc(C#N)c4)NC(=O)[C@@H](C)NC(=O)[C@H](CC(C)C)NC(=O)[C@H](CCC(N)=O)NC(=O)[C@H](Cc4ccc(-c5ccc(C(=O)O)cc5)cc4)NC(=O)CNC(=O)[C@@H](C)N(C)C(=O)[C@H](CC(=O)O)NC(=O)[C@H]([C@@H](C)c4cccc5ccccc45)NC(=O)[C@@H]4C[C@@H](N)CN4C(=O)CNC(=O)[C@H](Cc4ccc(C(=O)O)cc4)NC(=O)[C@H](Cc4c[nH]c5ccccc45)NC3=O)cn2)CC1)", "note": "[SEQ ID NO: 183 (Example No. 183)]", "MRC5 IC50": 13}
{"binder": "cyclo([Bip(4'-COOH)][Trp6Cl][Phe(4-COOH)]G[Pro(trans-4-NH2)][Trp(βS-Me,4-F)]D[dNMeA]G[Bip(4'-COOH)]KL[dA][hTyr])", "note": "[SEQ ID NO: 184 (Example No. 184)]", "MRC5 IC50": 18}
{"binder": "cyclo([Bip(4'-COOH)][Trp7F][Phe(4-COOH)]G[Pro(trans-4-NH2)][Trp(βS-Me,4-F)]D[dNMeA]G[Bip(4'-COOH)]KL[dA][hTyr])", "note": "[SEQ ID NO: 185 (Example No. 185)]", "MRC5 IC50": 24}
